# Results: the supplement of paper PMC10126150
# ± gives the standard deviation of the averaged measurements.
# System: ATP
# Experiment: switch fluorescence ratio, 500 uM ATP over buffer (Cy3 cluster intensity, sum of 5 cycles each) (fold (ratio)); higher = stronger signal-on switching upon ATP binding; sequences stand for … in TCGTCGGCAGCGTCAGATGTGTATAAGAGACAGTTTTTTTTTTTTTTTTTTTTTTTTT…TC
# Conditions: aptamer strand: ATP DNA aptamer (quencher-CACCTGGGGGAGTATTGCGGAGGAAGG + anchor), 100 nM annealed; ATP concentration: 500 uM
# Procedure, shortened: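 Cy3-labelled switching-strand clusters on a modified Illumina MiSeq flow-cell were annealed to 100 nM quencher-labelled ATP aptamer and imaged first in selection buffer, then after 15 min with 500 uM ATP at 22 °C. NaOH stripping and re-annealing separated each of five buffer/ATP cycles, and clusters outside 100-1000 RFU were excluded. The fluorescence ratio sums target-cycle Cy3 intensity over buffer-cycle Cy3 intensity per cluster and averages it per switch-domain sequence.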
# 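Note: ATP exposure 15 min at 22 °C before imaging.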
row,Sequence,switch fluorescence ratio
1,GGAGGGCATC,0.972 ± 0.0046
2,GGAGGGCGGT,0.9948 ± 0.0081
3,GGAGGGGCGT,0.993 ± 0.023
4,GGAGGGGTGC,1.04 ± 0.032
5,GGAGTAAAGG,1.06 ± 0.022
6,GGAGTACCTG,1.06 ± 0.046
7,GGAGTACGGG,0.999 ± 0.032
8,GGAGTAGGCT,0.938 ± 0.057
9,GGAGTATGAG,0.999 ± 0.021
10,GGAGTCGGGG,1 ± 0.012
11,GGAGTCTGG,1.0086 ± 0.0004
12,GGAGTTAAGC,1.03 ± 0.061
13,GGAGTTGCGC,1.03 ± 0.043
14,GGAGTTGGGA,1.021 ± 0.0066
15,GGAGTTGGGG,0.99 ± 0.02
16,GGAGTTGGGT,0.984 ± 0.08
17,GGAGTTTGAC,1.05 ± 0.068
18,GGAGTTTGAG,1 ± 0.0095
19,GGATAAAGGT,0.978 ± 0.018
20,GGATAGGAGC,0.964 ± 0.033
21,GGATAGTAGG,0.9956 ± 0.0083
22,GGATAGTGTT,0.988 ± 0.016
23,GGATATAGGG,1 ± 0.034
24,GGATCAGAAG,1.004 ± 0.0056
25,GGATCCTGCA,1.04 ± 0.052

row,Sequence,switch fluorescence ratio
1,GGATCGGATT,0.979 ± 0.023
2,GGATCGGGGC,0.994 ± 0.046
3,GGATGAAAG,0.99 ± 0.014
4,GGATGAACGG,1.01 ± 0.079
5,GGATGACTTT,0.9981 ± 0.0071
6,GGATGAGGGC,0.993 ± 0.0099
7,GGATGAGGTT,0.982 ± 0.044
8,GGATGATCTT,0.972 ± 0.022
9,GGATGCAAAG,1.01 ± 0.013
10,GGATGCTCGG,0.966 ± 0.015
11,GGATGCTGGT,1.04 ± 0.053
12,GGATGCTGTG,0.991 ± 0.013
13,GGATGCTGTT,1.02 ± 0.012
14,GGATGCTTGG,1.05 ± 0.021
15,GGATGGAAAT,1.04 ± 0.012
16,GGATGGAGGG,0.965 ± 0.02
17,GGATGGAGGT,1 ± 0.023
18,GGATGGGTCG,1.02 ± 0.083
19,GGATGGTTTT,1.02 ± 0.018
20,GGATGTAGAA,1.026 ± 0.0011
21,GGATGTCACT,0.974 ± 0.016
22,GGATGTCGCG,1.0124 ± 0.001
23,GGATGTGAGC,0.983 ± 0.021
24,GGATGTTGTG,0.974 ± 0.04
25,GGATGTTTAG,1.02 ± 0.021

row,Sequence,switch fluorescence ratio
1,GGATGTTTTT,1.03 ± 0.026
2,GGATTAAGTG,0.9616 ± 0.006
3,GGATTAGACG,0.955 ± 0.062
4,GGATTAGGAG,0.975 ± 0.011
5,GGATTAGGTA,1 ± 0.021
6,GGATTATACA,1.02 ± 0.002
7,GGATTCGTAA,0.998 ± 0.01
8,GGATTGAGTT,0.999 ± 0.035
9,GGATTGGGAC,1.024 ± 0.0016
10,GGATTGTATG,0.994 ± 0.032
11,GGATTGTCTT,1 ± 0.0014
12,GGATTTAAAA,1.05 ± 0.044
13,GGATTTCATG,1.07 ± 0.12
14,GGATTTGGCT,0.999 ± 0.029
15,GGATTTGGTG,1 ± 0.012
16,GGCAAATGGG,1.02 ± 0.012
17,GGCAATGAAG,1.03 ± 0.049
18,GGCACACAGT,1 ± 0.015
19,GGCACCTGAC,1.95 ± 0.11
20,GGCACGAGGA,1.04 ± 0.017
21,GGCACGCGAG,1.03 ± 0.05
22,GGCACGGGGG,1.02 ± 0.008
23,GGCACTATCC,1.09 ± 0.07
24,GGCACTGGTA,0.981 ± 0.022
25,GGCACTTCCA,1.03 ± 0.028

row,Sequence,switch fluorescence ratio
1,GGCAGATGAA,1.03 ± 0.011
2,GGCAGATTCC,1.05 ± 0.019
3,GGCAGATTTT,0.9986 ± 0.006
4,GGCAGCAAGT,1.16 ± 0.013
5,GGCAGGTGTT,1.73 ± 0.85
6,GGCAGTATTT,1.0371 ± 0.00098
7,GGCATAATTT,1.016 ± 0.008
8,GGCATCAGGC,1.03 ± 0.042
9,GGCATCATGT,1.012 ± 0.0039
10,GGCATGGTTT,1.01 ± 0.014
11,GGCATGTTAG,0.9847 ± 0.009
12,GGCATTACTG,1.06 ± 0.025
13,GGCATTTTTC,0.999 ± 0.021
14,GGCCAACGTA,0.997 ± 0.021
15,GGCCAAGGGT,1.03 ± 0.0039
16,GGCCACAGCA,1.07 ± 0.016
17,GGCCAGGGGA,1.04 ± 0.049
18,GGCCCGGAGC,1.24 ± 0.013
19,GGCCCTTTGG,0.984 ± 0.0082
20,GGCCGAGGAG,0.998 ± 0.012
21,GGCCGAGTTA,1.013 ± 0.0036
22,GGCCGCGGCC,1.0014 ± 0.00091
23,GGCCGGAGGT,1 ± 0.011
24,GGCCGTAATG,1.09 ± 0.019
25,GGCCGTATGT,1.01 ± 0.011

row,Sequence,switch fluorescence ratio
1,GGCCGTCGGA,1.06 ± 0.091
2,GGCCGTGAGT,0.996 ± 0.018
3,GGCCTACCAT,0.9979 ± 0.0091
4,GGCCTAGAGG,1.01 ± 0.021
5,GGCCTATTGG,0.998 ± 0.023
6,GGCCTGAGGG,0.9854 ± 0.0032
7,GGCCTGCTCG,0.988 ± 0.029
8,GGCCTGTTTT,1.09 ± 0.21
9,GGCCTTAAGT,0.9912 ± 0.0025
10,GGCGAAAAGG,0.993 ± 0.047
11,GGCGAAAATA,1.007 ± 0.0079
12,GGCGACACGT,1.03 ± 0.023
13,GGCGACGGAG,0.97 ± 0.0076
14,GGCGATTGGG,0.99 ± 0.026
15,GGCGCAGTTC,1.37 ± 0.077
16,GGCGCGCGGG,0.991 ± 0.00073
17,GGCGCGCGGT,0.98 ± 0.0095
18,GGCGCGGCGG,1.02 ± 0.068
19,GGCGCGTCCA,0.994 ± 0.013
20,GGCGCTCAGT,1.02 ± 0.02
21,GGCGCTTCGG,0.967 ± 0.05
22,GGCGGAACGT,1 ± 0.023
23,GGCGGACGGA,1.07 ± 0.089
24,GGCGGGACCG,0.959 ± 0.03
25,GGCGGGATAT,1.01 ± 0.032

row,Sequence,switch fluorescence ratio
1,GGCGGGATGC,1 ± 0.031
2,GGCGGGGGGG,1.03 ± 0.048
3,GGCGGGGGGT,1.01 ± 0.024
4,GGCGGGTGGG,1.03 ± 0.089
5,GGCGGTAAAG,0.992 ± 0.037
6,GGCGGTAGAG,1.012 ± 0.0091
7,GGCGGTTTGG,1.002 ± 0.0058
8,GGCGTATATC,1.02 ± 0.023
9,GGCGTATGTG,0.95983 ± 0.00095
10,GGCGTCAGGG,1 ± 0.051
11,GGCGTCTATC,1.01 ± 0.0096
12,GGCGTTCATG,0.9968 ± 0.0081
13,GGCTACAGCG,0.987 ± 0.0032
14,GGCTAGCCTA,1.01 ± 0.013
15,GGCTAGGGGT,1.57 ± 0.022
16,GGCTAGTACT,1.01 ± 0.011
17,GGCTATCGGG,1.02 ± 0.046
18,GGCTATTTAA,1.002 ± 0.0063
19,GGCTCAATGG,1.04 ± 0.031
20,GGCTCACTAG,1.01 ± 0.05
21,GGCTCAGTTT,0.979 ± 0.026
22,GGCTCATTGA,0.984 ± 0.029
23,GGCTCTGAGG,0.972 ± 0.02
24,GGCTGAGGGA,1.04 ± 0.037
25,GGCTGAGGGT,1 ± 0.016

row,Sequence,switch fluorescence ratio
1,GGCTGGGCTT,0.99 ± 0.04
2,GGCTGGGGGG,0.997 ± 0.02
3,GGCTGGGGTG,1.04 ± 0.071
4,GGCTGTAGAC,1.006 ± 0.0059
5,GGCTTAATAG,1.01 ± 0.033
6,GGCTTAGTTT,1.01 ± 0.0055
7,GGCTTATTTT,1.0031 ± 6.6e-05
8,GGCTTCTTGA,0.966 ± 0.017
9,GGCTTGAACT,1.05 ± 0.083
10,GGCTTGCCTC,1.023 ± 0.0069
11,GGGAAAGAAT,0.978 ± 0.011
12,GGGAAAGGAT,1.02 ± 0.033
13,GGGAAAGTTT,0.996 ± 0.023
14,GGGAAATATG,1.01 ± 0.012
15,GGGAAATGGT,1.01 ± 0.027
16,GGGAAATTCG,1.012 ± 0.0039
17,GGGAAATTGG,1 ± 0.031
18,GGGAACAGGG,1.003 ± 0.0024
19,GGGAACCGGG,1.2 ± 0.33
20,GGGAACGGTA,0.9955 ± 0.0076
21,GGGAACTGGG,1.04 ± 0.049
22,GGGAAGAATA,0.986 ± 0.018
23,GGGAAGAGGG,1 ± 0.016
24,GGGAAGAGTA,1 ± 0.031
25,GGGAAGATTC,1.01 ± 0.04

row,Sequence,switch fluorescence ratio
1,GGGAAGATTG,0.966 ± 0.052
2,GGGAAGCCTT,1.028 ± 0.0069
3,GGGAAGGAGT,0.992 ± 0.043
4,GGGAAGGCAT,0.986 ± 0.047
5,GGGAAGGCGT,1.12 ± 0.14
6,GGGAAGGGAT,0.981 ± 0.031
7,GGGAAGGGCA,1.01 ± 0.049
8,GGGAAGGTAG,0.995 ± 0.058
9,GGGAAGGTGG,1.04 ± 0.02
10,GGGAAGTCCG,0.974 ± 0.03
11,GGGAATACTT,1 ± 0.038
12,GGGAATCTTC,1.01 ± 0.034
13,GGGACAATAT,1.02 ± 0.044
14,GGGACAGACC,1.09 ± 0.024
15,GGGACATAGT,0.9616 ± 0.0037
16,GGGACATTGT,0.963 ± 0.03
17,GGGACCAGGG,0.989 ± 0.027
18,GGGACCATAT,1.03 ± 0.015
19,GGGACCGTAT,1 ± 0.023
20,GGGACCTTTG,0.994 ± 0.01
21,GGGACGAATC,1.006 ± 0.0041
22,GGGACGATGG,0.9857 ± 0.0013
23,GGGACGCAGG,1.015 ± 0.008
24,GGGACGGGGG,1.06 ± 0.16
25,GGGACGGGGT,0.963 ± 0.063
